Reference: patent US20180094055A1 (Amgen, published 2018)

B1: Anti-hPAC1 antibody L (antibody, human IgG2, kappa, V domains shown)
VH: QVQLVESGGGVVQPGRSLRLSCAASGFTFSRYAMHWVRQASGKGLEWVAVISYDGSNKYYADSVKGRFTISRDNSKNTLYLLMSSLRAEDTAVFYCARGYDILTGYPDYWGQGTLVTVSS
VL: DIQLTQSPSFLSASVGDRVTITCRASQSIGRSLHWYQQKPGKAPKLLFKYASQSLSGVPSRFSGSGSGTEFTLTISSLQPEDFATYYCHQSSRLPFTFGPGTKVDIKR
notes: also called Ab ID L
B2: Anti-hPAC1 antibody W (antibody, human IgG2, kappa, V domains shown)
VH: QVQLQESGPGLVKPSQTLSLTCTVSGGSISSGGYYWSWIRQHPGKGLEWIGYIYYSGNTYYNPSLKSRVTISGDTSKNQFSLKLRSVTAADTAVYYCTRGGAARGMDVWGQGTTVTVSS
VL: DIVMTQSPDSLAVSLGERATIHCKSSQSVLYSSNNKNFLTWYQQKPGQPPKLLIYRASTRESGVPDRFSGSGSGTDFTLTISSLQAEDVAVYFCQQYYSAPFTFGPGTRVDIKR
notes: also called Ab ID W

Legend:
[1] = molecular target: T1, human PAC1 (form used for the Kd determination not stated) (human, UniProt P41586 21-468, limits assumed); experiment: method not described (Table 8, 'Kd (nM)')
T1 construct: also called hPAC1
T1 sequence (looked up): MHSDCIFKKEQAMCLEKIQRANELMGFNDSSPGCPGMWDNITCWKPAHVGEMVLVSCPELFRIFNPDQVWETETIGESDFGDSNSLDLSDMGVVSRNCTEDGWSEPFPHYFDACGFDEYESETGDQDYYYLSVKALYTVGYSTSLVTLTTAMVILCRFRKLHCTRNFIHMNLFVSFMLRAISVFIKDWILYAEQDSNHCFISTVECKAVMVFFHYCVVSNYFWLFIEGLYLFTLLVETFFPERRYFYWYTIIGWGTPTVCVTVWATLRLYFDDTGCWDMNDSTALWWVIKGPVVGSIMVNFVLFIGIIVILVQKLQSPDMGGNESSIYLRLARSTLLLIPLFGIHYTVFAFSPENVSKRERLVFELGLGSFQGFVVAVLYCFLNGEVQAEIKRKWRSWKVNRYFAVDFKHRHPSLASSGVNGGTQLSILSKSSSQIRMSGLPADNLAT

[2] = molecular target: T2, human pituitary adenylate cyclase-activating polypeptide type I receptor, endogenously expressed on SH-SY-5Y … (human, UniProt P41586 21-468); experiment: cell-based or functional assay
T2 sequence (looked up): T1 sequence (looked up)

Binder	Kd [1]	Antagonist IC50 (nM), PAC1 mediated cAMP assay (LANCE), PACAP-38 1 nM stimulation [2]
B1	0.024 nM	4 nM
B2	0.189 nM	28 nM
